According to the nanobody polyreactivity screen of Harvey et al. (2022):

Assay: yeast display, Sf9 membrane polyspecificity reagent, FACS + sequencing; frameworks hold sequencing errors
Outline: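 In a synthetic yeast display library (Saccharomyces cerevisiae BJ5465), nanobody expression was induced with galactose for 36–48 hours. FACS gates were set low and high (top ~1%) using anti-HA fluorescence for expression and streptavidin fluorescence for binding of the Sf9 membrane reagent. Each polyreactivity label is drawn from the gate of origin.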

Sequence	polyreactivity (PSR sort gate)
QVQLVESGGGLVQAGGSLRLSCAASGSTFRGNAMGWYRQAPGKERELVAAITGRGGRTYYADSVKGRFTISRDNAKNTVYLQMNSLKPEDTAVYYCAAYSRYKPYGITAYDYWGQGTQVTVSS	high polyreactivity
QVQLVESGGGLVQAGGSLRLSCAASGRTLFYYTMGWYRQAPGKERELVAAISSGDSTNYADSVKGRFTISRDNAKNTVYLQMNRLKPEDTAVYYCATQYLLDYKKTYRTYYSPYDYWGQGTQVTVSS	low polyreactivity
QVQLVESGGGLDQAGGSLRLSCAASGSTFYGYAMGWYRPAPGKERELVAGISSGDSTNYADSVKGRFTISRDNAKNTVYLQMNSLKPEDTAVYYCARDYSRHKGDYWGQGTQVTVSS	low polyreactivity
QVQLVESGGGLVQAGGSLRLSCAASGSTFVGYAMGWYRQAPGKERELVASITRRGGSTYYADSVKGRFTISRDNAKNTVYLQMNSLKPEDTAVYYCATPLYKTATWRAYEYWGQGTQVTVSS	high polyreactivity
QVQLVESGGGLVQAGGSLRLSCAASGTIFAANAMGWYRQAPGKERELVAAISSGDGTYYADSVKGRFTISRDNAKNTVYLQMNSLKPEDTAVYYCAARFTYYSGYYAGSYGYWGQGTQVTVSS	high polyreactivity
QVQLVESGGGLVQAGGSLRLSCASSGYTFTVNAMGWYRQAPGKERELVAAISGSGGSTYYADSVKGRFTISRDNAKNTVYLQMNSLKPEDTAVYYCAADYWYYYWPLDYWGQGTQVTVSS	high polyreactivity
QVQLVESGGGLVQAGGSLRLSCAASGLTFSQNAMGWYRQAPGKERELVAAITRSGSTTHYADSVKGRFTISRDNAKNTVYLQMNSLKPEDTAVYYCAAVAFQTRYYYWGQGTQVTVSS	high polyreactivity
QVQLVESGGGLVQAGGSLRLSCAASGSIFGRYAMGWYRQAPGKERELVASINWNSGSTYYADSVKGRFTISRDNAKNTVYLQMNSLKPEDTAVYYCAAAALGYYGYWGQGTQVTVSS	low polyreactivity
QVQLVESGGGLVQAGGSLRLSCAASGLTFKSYAMGWYRQAPVKERELVAGISWSGDSTYYADSVKGRFTISRDNAKNTVYLQMNSLKPEDTAVYYCAAEYSYEYDYWGQGTQVTVSS	high polyreactivity
QVQLVESGGGLVQAGGSLRLSCAASGFTFDWNAMGWYRQAPGKERELVAAISSSTGRTYYADSVKGRFTISRDNAKNTVYLQMNSLKPEDTAVYYCAASLGGRAGNYWGQGTQVTVSS	high polyreactivity
QVQLVESGGGLVQAGGSLRLSCAPSGRTVRYNAMGWYRQAPGKERELVARITWSGGRTYYADSVKGRFTISRDNAKNTVYLQMNSLKPEDTAVNYGNAPSIAGYAEYNSHDYWGQGTQVTVSS	high polyreactivity
QVQLVESGGGLVQAGGSLPLSCAASGRTINTNAMGWSRQAPGKERELVAAISGGGSTYADSVKGRFTISRDNAKNTVYLQMNSLKPEDTAVYYCAAQNVWIYGFWRDYWGQGTQVTVSS	low polyreactivity
QVQHVESGGGLVQAGGSLRLSCAASGSNVVSNAMGWYRHATGKEREFVATISSGGGTTYADSVKGRFTISRDNAKITVYLQMNSLKAEDTAVYYCAAGHFVGREWVKFDYWGQGTQVTVSS	low polyreactivity
QVQLVESVVGLVQAVGTLRLSSAATGSTIYRNAMGWYRQPPGKEREFVAAISFRGGGTYADSVKGRFTISRDNAKNTVYLQMNSLKPEDTAVYYCAADHLSYRRRYEYWGQGTQVTVSS	low polyreactivity
QVQLVESGGGLVQAGGSLRLSCAASGRIFGANAMGWYRQAPGKERELVAAISRTGGSTYYADSVKGRFTISRDNAKNTVYLQMNSLKPEDTAVYYCNAVYRYAHPMEYWGQGTQVTVSS	high polyreactivity
QVQLVESGGGLVQAGGSLRLSCAASGITFYIYAMGWYRQAPGKERELVAAITWGGDGSTRYADSVKGRFTISRDNAKNTVYLQMNSLKPEDTAVYYCAGGSTFVLFDDMDYWGQGTQVTVSS	low polyreactivity
QVQLVESGGGLVQAGGSLRLSCAASGLIFFPKAMGGYRPAPGKERELVAYITWSGGGTNYSDSVKGRFTISRDNAKNTVYLQMNSLKPEDTAVYYCNADGTRDYFSLITGSYSVTYDYWGQGTQVTVSS	high polyreactivity
QVQLVESGGGLVQAGGSLRLSCAASGITFRGYAMGWYRQAPGKERELVAAISSRGGSTYYADSVKGRFTISRDNAKNTVYLQMNSLKPEDTAVYYCNAVSGLYFTYTYDYWGQGTQVTVSS	high polyreactivity
QVQHVESGGGLVQAGGSLRLSCAASGIIFKLYAMGWYRQAPGKEREFVATITKTGGRTYYADSVKGRFTISRDNAKNTVYLQMNSLKPEDTAVYYCAARRVNGKMYYWGQGTQVTVSS	high polyreactivity
QVQLVESGGGLVQAGGSLRLSCAASGYIFVRNAMGWYRQAPGKERELVAAISGSGGSTYYADSVKGRFTISRDNAKNTVYLQMNSLKPEDTAVYYCAADYATVTWRGIAYDYWGQGTQVTVSS	low polyreactivity
QVHLVESGGGLVQAGGSLRLSCAASGLIFTTNAMGWYRQAPGKERDFVAAISPSGGSTYYADSVKGRFTISRDNSKNTVYLQMNSLKPEDTAVYYCAARYSTVWHKYYYWGQGTQVTVSS	high polyreactivity
QVQLVESGGGFVQAGGSRRLSCAASGRIFDDNAMGGYRPAPGKERELVAAISSGDYTKYADSVKGRFTISRDNSKNSVYLQMNSLKPEDTAVYYCAADIVSDSFYQPEYDYWGQGTQVTVSS	low polyreactivity

Sequence	polyreactivity (PSR sort gate)
QVQLVESGGGLVQAGGSLRLSCAASGFTFTKYAMGWYRQAPGKERELVAAITSGTSTYYADSVKGRFTISRDNAKYTVYLQMNSLKPEVTAVYYCAAPLYGRYSYGYWGQCTQVTVSS	high polyreactivity
QVQLVESGGGLLQAGGSLRLSCAASGFTFFIYAMGWYRQAPGKEREFVAAITGSGGSTYYADSVKGRFRISRDNPKNTVYLLMNSLKPEDTAVYYCNKLSYGRSGYWGQGTQVTVSS	high polyreactivity
QVQLVESGGGLVQAGGSLRLSCAASGRTFYGYAMGWYRQAPGNERELVATITRRGGSTYYADSVKGRFRISRDNAKNTVYLQMNSLKPEDTAVYYCARQGDQYYRDGDDYWGQGTQVTVSS	high polyreactivity
QVQLVESGGGLVQAGGSLRLSCAASGFIFASYTMGWYRQAPGKERELVASISRRRGSTYYADSVKGRFTISRDIAKNTVYLQMNILKPEDTAVYYCAAERLTIDYDYWGQGTQVTVSS	high polyreactivity
QVQLVESGGGLVQAGGSLRLSCAASGRIFTYYVMGWYRQAPWKERELVAAISYGGGSTYYADSVKGRFTISRDNAKNTVYLQMNSLKPEDTAGYYCAAEDGYRKMDYWGQGTQVTVSS	low polyreactivity
QVQLVESGGGLVQAGGSLRLSCAASGSIFSSYGMGWYRQAPGKERELVATITGSGGSTYYSDSVKGRLTISRVNAKNTVYLQMNSLKPEDTAVYYCATRLGWFVKYYTGRYYYWGQGTQVTVSS	high polyreactivity
QVQLVESGGGLVQAGGSLRLSCDASGSTIYPYAMGWYRQAPGKERELVAAISSGGRTYYADSVKGRFTISRDNAKTTVYLQMNSLKPEDTAGYYCATYYYGWYTIDFYYWGQGTQVTVSS	high polyreactivity
QVQLVESGGGLVQAGGSLRLSCAASGSIFERYAMGWYRQSPGKEREFVATITSGGGRTYYADSVKGRFTISRENAKNTVYLQMNSLKPEDTAVYYCGAASYRRQPFNYWGQGTQVTVSS	high polyreactivity
QVQLVESGGGLVQAGGSLRLSCAASGRIFDYYTMGWYRQAPGKERELVAAISVRGGSTYYADSVKGRFTNSRDNAKNTVYLQMNSLKPEDTAVYYCAARSWRHRTYYYWGQGTQVTVSS	high polyreactivity
QVQLVESGGGLVQAGGSLRLSCAASGFTFLGYAMGWYRKAPGKERELDASITYGGDSTYYADSVKARFTISRDNAKNTFYLEMISLKPEDTAVYYCNARPSYWWGGRLYGYWGQGSQVTVSS	high polyreactivity
QVQLVESGGGLVQAGGSLRLSCAASGRIFRAYTMGWYRQAPGKERELVAAISGSGTSTYYADSVKGRFTISRDNAKNTVYLQMNSLKPEDTAVYYCAAPSLSGYGYEYWGQGTQVTVSS	high polyreactivity
QVQLVESGGGLVQAGGSLRLSCADSGSTFEYNDMGWYRQEPGKERELVASSTYYADSVQGRFTISRDNAKNTVYLQMNSLKPEDTAVYFCAREQGVNRNHDYWGQGTLVTVSS	low polyreactivity
QVQLVESGGGLVQAGGSLRLSCAASGFTFRGYAMGWYRQAPGKERELVAAISNGGGTNYADSVKGRFTISRDNAKNTVYLQMNSLKPEDTAVYYCNAPGYRAENPGFDYWGQGTQVTVSS	high polyreactivity
QDQLVESGGGLVQAGGSLRISCAASGITLEYNAMGGYRQAPGKERELVATIRSGGSTNYADSVKVRFTISRDNANNTVYLQMNSLKPEDTAVYYCAANHNTEYDWGQGTQVTVSS	high polyreactivity
QVQLVESGGGLVQAGGSLRLSCAASGRIFAYYAMGWYRQAPGKERELVADITRSGARTYYADSVKGRFTISRDNANNTVYLQMNSLTPEDTAVYYCAAEGVRIGTRYDYWGQGTQVTVSS	high polyreactivity
QVQLVESGGGLVQAGGSLRLSCAASGSTFTPNAMGWYRQAPGKERELVAAINWSDSSTYYADSVKGRFTISRDNAKNTVYLQMNSLKPEDTAVYFCAAAAQYGQLQVPVYYWGQGTQVTVSS	low polyreactivity
QVQLVESGGGLVQAGGSLRLSCAASGITFYPNGMGWYRQAPGKEREFVAAITSSGGSTYYADSVKGRFRISRDNAKNTLYLQMNSLKPEDTAVYYCAAQYYPISYYGYGYWGQGTQVTVSS	low polyreactivity
QVQLVESGGGLVQAGGSLRLTSADSGRTLYNYAMRWYRQAPGKERELVAGISSAGSTNYADSVKGRFTISRDNAKNTVYLQMNSLKPEDTAVYYCNAVLRRRWVTFYYWGQGPQVTVSS	high polyreactivity
QVQLVESGGGLVQAGGSFRLSSAPSGSIFVVYAMGGYIQAPGKERELVAAITSGGSTYYADSVKGRFTISRDNAKNTVYLQMNSLKPEDTAVYYCATTYRDGVYELSTFDYWGQGTQVTVSS	low polyreactivity
QVQLVESGGGLVQAGGSLRLSCAASGRTFVSNAMGWYRQAPGKERELVAAISGSGGITYYADSVKGRFTISRDNAKNTVYLQMNSLKPEDTAVYYCNADSSGWFPFDYWGQGTQVTVSS	low polyreactivity
QVQIEESGGGLVQAGGSLRLICAASGRIFLPYVMGWYRQAPGKERELVATITFGRSTTYADSVKGRFTISRDNAKNTVYLQMNCLKPEDTAFYYCNALSALAVEDGYWGHGTQVTVSS	low polyreactivity
